For three molecules, binding result and EC50 results are on record in US20240228612A1 (SICHUAN KELUN BIOTECH BIOPHARMACEUTICAL, published 2024).

Numbering of substitutions follows the chain as printed.

One assay has as its target T1, human Nectin-2 antigen (human, UniProt Q92692 32-360, limits assumed).
T1 sequence (looked up): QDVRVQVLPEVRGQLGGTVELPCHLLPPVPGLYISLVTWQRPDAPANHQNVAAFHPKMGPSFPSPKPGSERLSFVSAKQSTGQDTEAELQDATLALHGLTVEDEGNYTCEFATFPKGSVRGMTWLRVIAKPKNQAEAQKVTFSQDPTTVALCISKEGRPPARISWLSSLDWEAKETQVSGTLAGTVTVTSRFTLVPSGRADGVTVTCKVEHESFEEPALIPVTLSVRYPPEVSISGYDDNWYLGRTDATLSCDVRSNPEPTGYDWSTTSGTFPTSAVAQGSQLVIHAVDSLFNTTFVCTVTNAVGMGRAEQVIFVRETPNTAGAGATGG
Briefly: ELISA, coated human Nectin-2, anti-human-HRP. The procedure:
The Nectin family includes members of Nectin-1, Nectin-2, Nectin-3 and Nectin-4, and the members share a sequence identity of about 25%, but have similar structure and function. […] The specific steps were as follows: human Nectin-1, Nectin-2, Nectin-3 and Nectin-4 antigens were diluted to 1 μg/mL with CBS coating solution, coated on an ELISA plate at 100 μL per well, and standed overnight at 4° C.; the liquid in the well was discarded on the next day, and washing was performed once with 300 μL of PBS; 100 μL of PBS (containing 2% BSA) was added, and blocking was performed at 37° C. for 2 hours; 31HZ, 56HZ, 74HZ and Enfortumab antibodies were diluted with PBS (containing 2% BSA), 100 μL was taken and added to the corresponding well, incubated at 37° C. for 2 hours; washing was performed 3 times with 300 μL of PBST; HRP-labeled goat anti-human secondary antibody was diluted at a ratio of 1:10000 with PBS (containing 2% BSA), 100 μL was taken and added to the corresponding well, incubation was performed at 37° C. for 1 hour; washing was performed 5 times with 300 μL of PBST; 100 μL of TMB color development solution was added to the corresponding well, and color development was performed at room temperature for 5-20 minutes; 50 μL of 2N H₂SO₄ was added for stopping, a microplate reader was used for collecting readings at OD450 nm, and the data were imported into Graphpad Prism for curve fitting.
Background: In an ELISA, binding on a coated surface is turned into a signal by an enzyme label.

The target in assay [1] is T2, human Nectin-4 on cell membrane surface (human, UniProt Q96NY8 32-510).
T2 construct: whole, on cells; also called A549-Nectin-4; T24-Nectin-4
T2 sequence (looked up): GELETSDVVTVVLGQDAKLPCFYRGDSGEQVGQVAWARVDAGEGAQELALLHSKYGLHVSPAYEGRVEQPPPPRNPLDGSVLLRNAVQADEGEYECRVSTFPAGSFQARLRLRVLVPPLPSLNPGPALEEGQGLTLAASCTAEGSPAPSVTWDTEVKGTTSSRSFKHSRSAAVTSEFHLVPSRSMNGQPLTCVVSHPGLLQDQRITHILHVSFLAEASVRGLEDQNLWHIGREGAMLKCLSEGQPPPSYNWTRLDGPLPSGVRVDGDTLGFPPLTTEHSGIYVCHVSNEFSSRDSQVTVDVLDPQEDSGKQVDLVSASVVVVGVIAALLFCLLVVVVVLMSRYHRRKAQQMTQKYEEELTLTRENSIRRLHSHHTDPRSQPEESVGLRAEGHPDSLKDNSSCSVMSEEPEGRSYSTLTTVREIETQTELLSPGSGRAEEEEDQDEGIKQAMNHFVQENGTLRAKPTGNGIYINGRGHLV
The experiment in a line: flow cytometry on T47D cells. The protocol: The specific steps were as follows: T47D cells were digested, resuspended by centrifugation, and washed twice with PBS; the cells were resuspended in PBS (containing 1% BSA), and spread into a 96-well tip-bottom plate at 3×10⁵ cells/well, with a volume of 50 μl per well; 50 μL of the antibody to be tested was added to each well, starting at a final concentration of […], 4-fold gradient dilution, a total of 10 concentration points; Human IgG was used as a negative control; after being mixed well, the resulting mixture was reacted in the dark at 4° C. for 1 hour; washing was performed 3 times with PBS, FITC-labeled anti-human Fc secondary antibody (brand: BioLegend, product number: 409322) was added, incubated at 4° C. for 0.5 hours in the dark; washing was performed 3 times with PBS, and detection was carried out using a flow cytometer (flow cytometer brand: Beckman, model: Cytoflex).

Assay [2] addresses T3, two IgC domains of human Nectin-4 overexpressed on A549 cells (human, UniProt Q96NY8 148-349, limits assumed).
T3 construct: domain: two IgC domains; also called A549-Nectin-4-IgCC
T3 sequence (looked up): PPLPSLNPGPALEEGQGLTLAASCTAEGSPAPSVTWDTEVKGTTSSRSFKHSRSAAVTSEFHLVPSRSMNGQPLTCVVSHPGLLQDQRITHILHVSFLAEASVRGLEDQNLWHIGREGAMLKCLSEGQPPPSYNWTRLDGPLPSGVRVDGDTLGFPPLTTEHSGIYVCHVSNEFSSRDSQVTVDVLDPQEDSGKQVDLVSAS
The experiment in a line: flow cytometry on A549-Nectin-4-IgCC cells. From the text:
Human Nectin-4 contains one IgV domain and two IgC domains. To determine the binding domain of the anti-human Nectin-4 humanized monoclonal antibodies, an A549 stable cell line A549-Nectin-4-IgV overexpressing Nectin-4 IgV domain, and an A549 stable cell line A549-Nectin-4-IgCC overexpressing two IgC domains of Nectin-4 were constructed, and the binding domains of the antibody to be tested were detected by flow cytometry. The specific steps were as follows: A549-Nectin-4-IgV and A549-Nectin-4-IgCC cells were digested, resuspended by centrifugation, washed twice with PBS; the cells were resuspended with PBS (containing 1% BSA), and spread at 300,000 cells/well into a 96-well tip-bottom plate, 50 μl per well; 50 μL of the antibody to be tested at a final concentration of 40 μg/mL was added to each well, and Human IgG was used as a negative control; after being mixed well, the resulting mixture was reacted in the dark at 4° C. for 1 hour; washing was performed 3 times with PBS, FITC-labeled anti-human Fc secondary antibody (brand: BioLegend, product number: 409322) was added, incubated at 4° C. for 0.5 hours in the dark; washing was performed 3 times with PBS, and detection was carried out using a flow cytometer (flow cytometer brand: Beckman, model: Cytoflex).
(In flow cytometry, cells or beads pass a laser one at a time.)

B1: anti-human Nectin-4 humanized monoclonal antibody 74HZ (antibody, human IgG1, kappa, V domains shown)
VH: QVQLVQSGAEVKKPGSSVKVSCKASGYTFINYWMNWVRQAPGQGLEWIGMIHPSDSATRLNQSFQGRVTLTVDKSTSTAYMELSSLRSEDTAVYYCARWGNFYTVNAWYYFDYWGQGTLVTVSS
VL: DIVITQSPDSLAVSLGERATINCKSSQTLLNSNTQKNYLAWYQQKPGQSPKLLFYFASTRESGVPDRFSGSGSGTDFTLTISSLQAEDVAVYFCQQHYSTPLTFGQGTKLEIKR
notes: Human IgG1 heavy chain constant region, human kappa light chain constant region; expressed in CHO-E cells
By EC50 is commonly meant the concentration that produces a half-maximal response. Lower therefore signals higher potency in that assay. Take B1: the values for the binding result (with human Nectin-2 antigen; in assay [2]) were “no binding (tested: 10000 ng/mL)” and “no binding”, respectively. In assay [1], this molecule came in with an EC50 of 0.0223 mg/L.

B2: anti-human Nectin-4 humanized monoclonal antibody 31HZ (antibody, human IgG1, kappa, V domains shown)
VH: QVQLVQSGAEVKKPGSSVKVSCKASGYTFTDYWMNWVRLAPGQGLEWIGMIHPSDSETRLNQKFQGRVTLTVDKSTSTAYMELSSLRSEDTAVYYCARWDFRIYYAMDYWGQGTLVTVSS
VL: B1 VL with I2V, T28S, S32T, T34S, F54V, Q106G, L110V
notes: as for B1
For B2, the binding result is given as “no binding (tested: 10000 ng/mL)” with human Nectin-2 antigen and “no binding” in assay [2]. Further, it took 0.0123 mg/L to reach a half-maximal effect in assay [1] (EC50).

B3: anti-human Nectin-4 humanized monoclonal antibody 56HZ (antibody, human IgG1, kappa, V domains shown)
VH: QVQLQESGPGLVKPSQTLSLTCTVSGYFNSITSDYDWHWIRHHPGKGLEWMGYISFSGRTYYNPSLKSRVTISHDTSKNQFSLKLSSVTAADTAVYYCARGNYDGFDYWGQGTLVTVSS
VL: DIVLTQSPATLSLSPGERATLSCRASQNIGTSIHWYQHKPGQSPRLLIKFASESISGIPARFSGSGSGTDFTLTISSLEPEDFAVYYCQQSKSWPTYTFGGGTKVEIKR
notes: as for B1
For B3, the binding result (in the assay with human Nectin-2 antigen; in assay [2]) was “no binding” in each case.
